Target: Spike protein of patient-derived SARS-CoV-2 (D614G) (SARS-CoV-2) (UniProt P0DTC2)
Assay: cell-based or functional assay

Row | Substance | neutralization by the trimer against the monomer | partial neutralization
1 | VHH-72 ColXVIII trimer | 10000 fold | 
2 | VHH-72 monomer |  | 170 nM

Source: US20230287087A1
